{
  "source": "patent EP4725966A1",
  "about": "“HUMAN EPIDERMAL GROWTH FACTOR 3 ANTIBODY, PREPARATION METHOD THEREFOR, AND USE THEREOF” (priority 2023, dated 2024)",
  "key": {"[1]": {"test_system": "A375 cells overexpressing human HER3", "assay": "ADC cytotoxicity, CellTiter-Glo", "format": "cell-based", "details": "Example 21, FIG. 13"}, "[2]": {"test_system": "human HER3-overexpressing JIMT-1 cells", "assay": "ADC cytotoxicity", "format": "cell-based", "details": "FIG. 13", "description": "(§1) A375 and OVCAR3 cells were seeded in 96-well plates at 5,000 cells per well, and gradient-diluted ADCs (cHE4-G1W-DXd, cHE5-G1W-DXd, cHE7-G1W-DXd, patritumab-DXd, and IgG-DXd) were added. After incubation at 37°C for 5 days, cell viability was measured using CellTiter-Glo (Promega) to evaluate cytotoxicity of the ADCs.\n(§2) The cytotoxicity of antibody-drug conjugates based on hHE4-G1W against HER3-expressing HCC1569, A375, and JIMT-1 tumor cells was tested. Antibody-drug conjugates were prepared as described in Example 11. Hydrophobic interaction chromatography indicated the antibody-to-Dxd ratios for cHE4-G1W-DXd, hHE4-G1W-DXd, patritumab-DXd, and negative control IgG-DXd were 1:7, 1:8, 1:7.8, and 1:8, respectively."}, "[3]": {"test_system": "HER3-expressing HCC1569 cells", "assay": "ADC cytotoxicity", "format": "cell-based", "details": "FIG. 13", "description": "as §1, §2"}, "[4]": {"test_system": "HER3-overexpressing A375 cells", "assay": "Cell imaging of internalization", "format": "cell-based", "details": "100 nM, FIG. 11", "description": "A cell imaging microplate detection system was used to monitor the internalization of hHE4-G1W, hHE4-G1W-DXd, patritumab, and patritumab-DXd after binding to HER3 on the surface of A375 tumor cells. hHE4-G1W, hHE4-G1W-DXd, patritumab, and patritumab-DXd (each 100 nM) were incubated with HER3-overexpressing A375 cells at 4°C for 30 minutes, respectively. Unbound antibodies were removed by washing, and PE-labeled goat anti-human Fc secondary antibody (Jackson) was added. The mixture was incubated at 4°C for 30 minutes, and then the unbound secondary antibody was removed by washing. When the antibodies were bound to the surface of A375 cells and had not yet undergone internalization, these samples were designated as the 0h samples. Fluorescence images were acquired using a Biotek Cytation 1 imaging reader. Cells were then incubated at 37°C for 3 hours and imaged again."}, "SW620 tumor": {"test_system": "SW620 tumor", "assay": "Tumor inhibition in SW620 tumor-bearing mice", "format": "in vivo, Female SCID mice", "details": "3 mg/kg, single dose, FIG. 14", "description": "The anti-tumor efficacy of hHE4-G1W-DXd and cHE5-G1W-DXd was evaluated in SW620 tumor-bearing mice. Female SCID mice were subcutaneously injected with SW620 cells in the dorsal region to establish the xenograft model. After tumor establishment, mice were randomly divided into nine groups and treated with a single dose. Three groups served as negative controls: one group received PBS, and two groups received IgG-DXd at low dose (3 mg/kg) and high dose (6 mg/kg), respectively. Experimental groups were administered with hHE4-G1W-DXd, cHE5-G1W-DXd, or patritumab-DXd at 3 mg/kg or 6 mg/kg. The average Dxd-to-antibody ratio was 8. Mouse body weights and tumor volumes were measured."}},
  "data": [
    {"substance": "patritumab-DXd [reference compound]", "values": [
      {"measurement": "cytotoxicity against A375 cells", "setting": "[1]", "value": "significant cytotoxicity"},
      {"measurement": "cytotoxicity against JIMT-1 cells", "setting": "[2]", "value": "significant cytotoxicity"},
      {"measurement": "cytotoxicity against HCC1569 cells", "setting": "[3]", "value": "significant cytotoxicity"},
      {"measurement": "binding to HER3 on the surface of A375 cells", "setting": "[4]; 0 hour", "value": "bound to HER3 expressed on the cell surface"},
      {"measurement": "internalization into A375 cells", "setting": "[4]; after 3 hours at 37°C", "value": "internalized into the A375 cells"},
      {"measurement": "tumor growth", "setting": "SW620 tumor", "value": "significant tumor growth at day 14 postadministration"}
    ]}
  ]
}
